Results taken from US20180193423A1 (LONGEVITY BIOTECH, published 2018).
Primed or numbered codes have the meaning given here. Where no end group is shown, it is not given here. [ ]: non-standard residue; d: D form. APC″ = 3-aminopyrrolidine-4-carboxylic acid (cyclic β-amino acid); ACPC″ = 2-aminocyclopentanecarboxylic acid (x in the sequences); APC = 3-aminopyrrolidine-4-carboxylic acid; ACPC = 2-aminocyclopentanecarboxylic acid; β3hY = N[C@H](CC(=O)O)Cc1ccc(O)cc1; β3hR = N=C(N)NCCC[C@H](N)CC(=O)O; β3hQ = NC(=O)CC[C@H](N)CC(=O)O; β3hN = NC(=O)C[C@H](N)CC(=O)O; β3hL = CC(C)C[C@H](N)CC(=O)O; β3hK = NCCCC[C@H](N)CC(=O)O; β3hV = CC(C)[C@H](N)CC(=O)O; Aib = CC(C)(N)C(=O)O; βAla = NCCC(=O)O

T1: VPAC1 receptor (UniProt P32241 31-457, limits assumed)
T1 sequence (looked up): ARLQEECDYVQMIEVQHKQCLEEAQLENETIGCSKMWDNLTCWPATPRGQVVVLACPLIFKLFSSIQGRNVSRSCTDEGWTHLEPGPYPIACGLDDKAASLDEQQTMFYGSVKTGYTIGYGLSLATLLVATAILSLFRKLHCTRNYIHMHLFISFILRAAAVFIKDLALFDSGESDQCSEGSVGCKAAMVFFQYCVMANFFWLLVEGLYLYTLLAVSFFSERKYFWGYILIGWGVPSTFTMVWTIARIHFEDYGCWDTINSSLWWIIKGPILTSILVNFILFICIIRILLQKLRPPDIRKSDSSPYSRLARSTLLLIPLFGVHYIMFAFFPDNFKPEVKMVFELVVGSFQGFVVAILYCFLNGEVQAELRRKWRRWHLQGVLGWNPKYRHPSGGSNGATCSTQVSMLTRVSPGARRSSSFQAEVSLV

T2: VPAC2 receptor (UniProt P41587 24-438, limits assumed)
T2 sequence (looked up): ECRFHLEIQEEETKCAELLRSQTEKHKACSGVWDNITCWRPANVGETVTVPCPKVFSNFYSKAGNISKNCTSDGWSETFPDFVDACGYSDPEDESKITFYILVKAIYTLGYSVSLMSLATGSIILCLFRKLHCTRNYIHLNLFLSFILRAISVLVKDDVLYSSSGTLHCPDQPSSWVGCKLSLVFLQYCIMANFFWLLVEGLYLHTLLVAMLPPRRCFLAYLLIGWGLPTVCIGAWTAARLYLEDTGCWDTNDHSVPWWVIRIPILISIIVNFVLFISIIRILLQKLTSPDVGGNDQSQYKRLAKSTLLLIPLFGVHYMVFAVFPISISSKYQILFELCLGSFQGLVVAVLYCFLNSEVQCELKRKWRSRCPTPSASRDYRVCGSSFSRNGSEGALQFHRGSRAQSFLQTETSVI


How the values were obtained:
[1] = target: T1, VPAC1 receptor; test: cell-based or functional assay
[2] = target: T2, VPAC2 receptor; test: cell-based or functional assay

| Binder | EC 50 vpac1 (Molar), cell-based cAMP assay [1] [nM] | EC50 vpac2 (Molar), cell-based cAMP assay [2] [nM] |
| --- | --- | --- |
| Ac-H[ACPC″]DA[ACPC″]FTE[ACPC″][β3hY]TKLR[β3hK]QLAA[APC″]KY[ACPC″]NDL[β3hK]KG[βAla]T (not fully specified (C-terminus); printed as Ac-HxDAxFTExyTKLRkQLAAzKYxNDLkKGgT) [LBT-V219] | 461 | > 1000 |
| Ac-H[ACPC]DA[β3hV]FTENYTKLRK[β3hQ]LAA[APC]KY[ACPC]NDL[β3hK]KG[βAla]T (not fully specified (C-terminus); printed as Ac-HxDAvFTENYTKLRKqLAAzKYxNDLkKGgT) [LBT-V212] | 1530 | 3.52 |
| Ac-H[ACPC″]DA[ACPC″]FTE[β3hN][β3hY]TKLRKQLAA[APC″]KY[ACPC″]NDL[β3hK]KG[βAla]T (not fully specified (C-terminus); printed as Ac-HxDAxFTEnyTKLRKQLAAzKYxNDLkKGgT) [LBT-V216] | 932 | 95.6 |
| Ac-H[ACPC]DA[ACPC]FTENYTKLRKQLAA[APC]KY[ACPC]NDL[β3hK]KG[βAla]T (not fully specified (C-terminus); printed as Ac-HxDAxFTENYTKLRKQLAAzKYxNDLkKGgT) [LBT-V208] | 133 | 0.646 |
| Ac-HSDAVFTENYTKLRKQLA[ACPC]KKY[ACPC]ND[β3hL]KKG[βAla]T (not fully specified (C-terminus); printed as Ac-HSDAVFTENYTKLRKQLAxKKYxNDlKKGgT) [LBT-V201] | 9.09 | 104 |
| Ac-HSDAVFTENYTKLRKQLAA[APC]KY[ACPC]NDL[β3hK]KG[βAla]T (not fully specified (C-terminus); printed as Ac-HSDAVFTENYTKLRKQLAAzKYxNDLkKGgT) [LBT-V202] | > 1000 | 0.963 |
| Ac-H[Aib]DA[β3hV]FTE[β3hN]YTKLRKQLAA[APC]KY[ACPC]NDL[β3hK]KG[βAla]T (not fully specified (C-terminus); printed as Ac-HBDAvFTEnYTKLRKQLAAzKYxNDLkKGgT) [LBT-V206] | > 1000 | 3.47 |
| Ac-H[Aib]DA[β3hV]FTENYTKLRKQLAA[APC]KY[ACPC]NDL[β3hK]KG[βAla]T (not fully specified (C-terminus); printed as Ac-HBDAvFTENYTKLRKQLAAzKYxNDLkKGgT) [LBT-V205] | > 1000 | 0.816 |
| Ac-H[ACPC″]DA[β3hV]FTENYTKL[β3hR]KQLAA[APC″]KY[ACPC″]NDL[β3hK]KG[βAla]T (not fully specified (C-terminus); printed as Ac-HxDAvFTENYTKLrKQLAAzKYxNDLkKGgT) [LBT-V214] | > 1000 | 1.37 |
| Ac-H[ACPC″]DA[ACPC″]FTE[ACPC″][β3hY]TKLRKQ[β3hL]AA[APC″]KY[ACPC″]NDL[β3hK]KG[βAla]T (not fully specified (C-terminus); printed as Ac-HxDAxFTExyTKLRKQlAAzKYxNDLkKGgT) [LBT-V217] | 785 | 1.17 |
| Ac-H[ACPC]DA[ACPC]FTE[ACPC]YTKLRKQLAA[APC]KY[ACPC]NDL[β3hK]KG[βAla]T (not fully specified (C-terminus); printed as Ac-HxDAxFTExYTKLRKQLAAzKYxNDLkKGgT) [LBT-V209] | > 1000 | 5.58 |
| Ac-H[ACPC]DA[β3hV]FTENYTKLRKQ[β3hL]AA[APC]KY[ACPC]NDL[β3hK]KG[βAla]T (not fully specified (C-terminus); printed as Ac-HxDAvFTENYTKLRKQlAAzKYxNDLkKGgT) [LBT-V211] | > 1000 | 1.26 |
| Ac-H[ACPC]DA[β3hV]FTENYTKLR[β3hK]QLAA[APC]KY[ACPC]NDL[β3hK]KG[βAla]T (not fully specified (C-terminus); printed as Ac-HxDAvFTENYTKLRkQLAAzKYxNDLkKGgT) [LBT-V213] | 293 | 1.27 |
| Ac-H[ACPC]DAVFTENYTKLRKQLAA[APC]KY[ACPC]NDL[β3hK]KG[βAla]T (not fully specified (C-terminus); printed as Ac-HxDAVFTENYTKLRKQLAAzKYxNDLkKGgT) [LBT-V207] | > 1000 | 0.593 |
| Ac-H[ACPC]DA[β3hV]FTENYTKLRKQLAA[APC]KY[ACPC]NDL[β3hK]KG[βAla]T (not fully specified (C-terminus); printed as Ac-HxDAvFTENYTKLRKQLAAzKYxNDLkKGgT) [LBT-V210] | 1420 | 0.859 |
| Ac-H[ACPC″]DA[ACPC″]FTE[ACPC″][β3hY]TKLRK[β3hQ]LAA[APC″]KY[ACPC″]NDL[β3hK]KG[βAla]T (not fully specified (C-terminus); printed as Ac-HxDAxFTExyTKLRKqLAAzKYxNDLkKGgT) [LBT-V218] | > 1000 | 1.02 |
| Ac-H[ACPC″]DA[β3hV]FTENYTK[β3hL]RKQLAA[APC″]KY[ACPC″]NDL[β3hK]KG[βAla]T (not fully specified (C-terminus); printed as Ac-HxDAvFTENYTKlRKQLAAzKYxNDLkKGgT) [LBT-V215] | 1420 | 1.33 |
